The results in this text go back to article PMC314469, “Protein Interaction Networks by Proteome Peptide Scanning” (PLoS Biology, 2004).

In assay [1] the target is endophilin SH3 (SH3G2_HUMAN), Q99962. Nature of the assay: SPOT array.
Assay [2] concerns the target T1, amphyphisin SH3 (AMPH_HUMAN), P49418.
T1 chain: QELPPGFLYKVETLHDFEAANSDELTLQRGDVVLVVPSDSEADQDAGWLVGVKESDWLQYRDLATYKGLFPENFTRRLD
As to the kind of experiment: SPOT array.

Turning to ARLPPPRPQRPAET [Q9NQE0 226-239], the normalised SPOT signal, Boehringer light units (BLU); mean over the file's lines of this peptide in assay [1] was 3150; in assay [2] it was 678.
The like results for NSSRPGRPPKRSLG [Q96NX9 174-188] were, in that order, 18800 and 4020.
As to NSSHIKRPMNAFMV [Q9UN79 402-415], the normalised SPOT signal, Boehringer light units (BLU); mean over the file's lines of this peptide was 176 in assay [1] and 37.1 in assay [2].
In the case of NSRNPRRPPPSSVN [Q96T16 198-211], the normalised SPOT signal, Boehringer light units (BLU); mean over the file's lines of this peptide in assay [1] amounted to 464; in assay [2], 78.8.
Take NYKNIKRPPGDIMF [Q9Y310 97-110]: the normalised SPOT signal, Boehringer light units (BLU); mean over the file's lines of this peptide in assay [1] came out at 36; in assay [2], 19.
The like results for NNRVLRRPSERGRA [Q9Y3S6 986-999] were, in that order, 652 and 150.
As to NVSSFRRPRRSSDK [Q9P2Y5 686-699], the values for the normalised SPOT signal, Boehringer light units (BLU); mean over the file's lines of this peptide in assay [1] and in assay [2] were 105 and 2350, respectively.
The corresponding values for NLFGPKRPKALKLL [O75560 490-503] are 1970 and 113.
On to NKVPIKRPSTGLLM [Q92187 271-284], for which the normalised SPOT signal, Boehringer light units (BLU); mean over the file's lines of this peptide in assay [1] amounted to 366; in assay [2], 6.6.
The like results for NGYFFKRPYPFVLF [Q9NWE7 371-384] were, in that order, 106 and 64.4.
As for ARKQPRRPHFLLEP [O60289 975-988], the normalised SPOT signal, Boehringer light units (BLU); mean over the file's lines of this peptide came to 31.6 in assay [1] and 30.4 in assay [2].
On to NNPLIGRPNKVTTV [O60306 1318-1331], for which the normalised SPOT signal, Boehringer light units (BLU); mean over the file's lines of this peptide worked out at 267 in assay [1] and 45.8 in assay [2].
The corresponding values for NQKQLKRPAQGKRQ [Q9H6S7 54-67] are 68.6 and -0.
In the case of NTFHILRPTKAPGF [Q9Y2L0 734-747], the normalised SPOT signal, Boehringer light units (BLU); mean over the file's lines of this peptide was 256 in assay [1] and 194 in assay [2].
The like results for NIQTLDRPIKKGPV [Q9P2M9 345-358] were, in that order, 58.7 and 16.4.
The corresponding values for ARLYLRRPAADGAE [Q14181 572-585] are 91.8 and 43.
The like results for NPALFPRPERYNPQ [P15538 413-426] were, in that order, 102 and 318.
As to NSPTLERPGRKRKW [Q9H247 116-129], the normalised SPOT signal, Boehringer light units (BLU); mean over the file's lines of this peptide in assay [1] was 81.5; in assay [2], 497.
The like results for NLSLLRRPGEKTYT [P23246 281-294] were, in that order, 23.4 and 29.7.
The like results for NSDTPPRPDRLPLD [Q05209 516-529] were, in that order, 0 and 125.
The corresponding values for NLLPPKRPIKEVLT [Q9NNY5 699-712] are 1560 and 370.
On to NSAGISRPSRVSDA [P54296 461-474], for which the normalised SPOT signal, Boehringer light units (BLU); mean over the file's lines of this peptide in assay [1] came out at 95.7; in assay [2], 362.
The like results for NSFSPQKPPGHSSR [Q9BX63 202-216] were, in that order, 505 and 43.8.
The corresponding values for NSHLLPRPLRHLAS [P47901 342-355] are 2290 and 1620.
The corresponding values for NKVHIKRPTTGLLM [Q92186 286-299] are 125 and 32.2.
ARGSPARPRRLPLL [Q13308 4-17]: the normalised SPOT signal, Boehringer light units (BLU); mean over the file's lines of this peptide in assay [1] worked out at 1930; in assay [2], 6690.
As for NTAKPTRPPSESSS [Q9Y2E7 460-474], the normalised SPOT signal, Boehringer light units (BLU); mean over the file's lines of this peptide came out at 141 in assay [1] and 48.6 in assay [2].
The corresponding values for NKIEFKRPGKAANK [Q9ULP1 1037-1050] are 128 and 124.
The like results for NMSDPRRPNKVLRY [Q9Y284 5-18] were, in that order, 1060 and 641.
The corresponding values for NQSVPKRPAGSVQN [P00533 1094-1107] are 26.5 and 23.4.
Regarding NSSSFKRPDGEMNI [O00463 504-517], the values for the normalised SPOT signal, Boehringer light units (BLU); mean over the file's lines of this peptide in assay [1] and in assay [2] were 39.5 and 7.2, respectively.
NINGIRRPLQGVAN [Q9Y5X7 8-21]: the normalised SPOT signal, Boehringer light units (BLU); mean over the file's lines of this peptide in assay [1] turned out to be 44.7; in assay [2], 17.3.
The like results for NMNRFDRPDRNVRQ [Q9ULU1 327-340] were, in that order, 452 and 3660.
The corresponding values for NVPIPERPPPVPPP [Q96BJ8 361-375] are 84 and 37.6.
The like results for NSMGIKRPAPQPAS [O94830 308-321] were, in that order, 165 and 24.3.
As for NIEKIKRPRSSNAE [Q12920 238-251], the values for the normalised SPOT signal, Boehringer light units (BLU); mean over the file's lines of this peptide in assay [1] and in assay [2] were 55.4 and 26.5, respectively.
The corresponding values for NRWGPGRPPFRKAQ [Q9Y2K9 813-827] are 6400 and 67.5.
The like results for NVLVPSRPPRNPYD [BAC03435 232-246] were, in that order, 2920 and 4650.
